Measurements published in the Human Domainome abundance scans (Beltran et al. 2025).
± gives the uncertainty stated by the source.

B1: Histone H1t, residues 44 to 112; numbered along this chain, P22492 (parent)
chain: VSKLITEALSVSQERVGMSLVALKKALAAAGYDVEKNNSRIKLSLKSLVNKGILVQTRGTGASGSFKLS
B2: Serine/threonine-protein kinase LATS1, residues 98 to 141; numbered along this chain, O95835 (parent)
chain: TSEVNPQMLQDLQAAGFDEDMVIQALQKTNNRSIEAAIEFISKM

Variants of: B1
Test: abundance fitness (aPCA) (normalised: wild type 0, dead -1); higher = more abundant; growth selection in yeast, the domain comes from the species named
Settings: Homo sapiens

Abundance fitness of substitutions, site by site:
S2: N 0.051 ± 0.066 | Q -0.344 ± 0.15 | I -0.234 ± 0.039 | L -0.398 ± 0.029 | A -0.404 ± 0.3 | D 0.251 ± 0.12 | F -0.383 ± 0.03 | V -0.652 ± 0.1 | H -0.474 ± 0.094 | P -0.456 ± 0.18 | T -0.145 ± 0.19 | C -0.438 ± 0.17 | Y -0.185 ± 0.039 | M -0.316 ± 0.038 | E 0.566 ± 0.22 | K 0.251 ± 0.055
V1: K -0.403 ± 0.12 | L -0.536 ± 0.17 | P 0.071 ± 0.32 | H -0.877 ± 0.43 | I 0.005 ± 0.072 | A -0.12 ± 0.35 | Y -0.269 ± 0.091 | F -0.054 ± 0.097 | T -0.337 ± 0.076 | S -0.512 ± 0.11 | M -0.16 ± 0.094 | N -0.557 ± 0.1
I5: C -0.415 ± 0.083 | V -0.267 ± 0.049 | D -1.04 ± 0.22 | A -0.705 ± 0.11 | H -1.46 ± 0.39 | F -0.372 ± 0.038 | T -0.985 ± 0.16 | E -1.13 ± 0.24 | M -0.33 ± 0.043 | L -0.244 ± 0.029 | G -0.942 ± 0.074 | P -1.16 ± 0.19 | R -1.24 ± 0.12 | W -0.46 ± 0.072 | N -0.664 ± 0.15 | Q -1.28 ± 0.27
T6: A -0.536 ± 0.14 | C -0.181 ± 0.1
K3: E 0.001 ± 0.05 | Y -0.717 ± 0.17 | N -0.139 ± 0.13 | D -0.144 ± 0.1 | S -0.297 ± 0.092 | C -0.411 ± 0.063 | W -0.691 ± 0.042 | R -0.251 ± 0.043 | I -0.656 ± 0.072 | F -0.595 ± 0.091 | G -0.45 ± 0.035 | L -0.474 ± 0.043 | V -0.431 ± 0.041 | M -0.583 ± 0.054
L4: W -0.506 ± 0.32

Variants of: B2
Test: as above
Settings: Homo sapiens

Abundance fitness of substitutions, site by site:
L9: T -0.166 ± 0.15 | Q -0.124 ± 0.08 | P -0.53 ± 0.1 | R -0.104 ± 0.062 | S -0.125 ± 0.056 | K 0.136 ± 0.05
T1: G 0.023 ± 0.041 | R -0.072 ± 0.052 | P -0.213 ± 0.074 | V -0.148 ± 0.048 | C -0.098 ± 0.046 | S 0.021 ± 0.04 | A -0.062 ± 0.042
Q24: L 0.013 ± 0.036 | A -0.066 ± 0.034 | D -0.005 ± 0.05 | H 0.055 ± 0.048 | C -0.043 ± 0.042 | E 0.083 ± 0.038
N5: T -0.628 ± 0.063 | W -0.828 ± 0.066 | E -0.442 ± 0.055 | G -0.653 ± 0.04
D11: G -0.479 ± 0.04 | K 0.083 ± 0.1 | S -0.021 ± 0.043 | F -0.045 ± 0.051 | M -0.154 ± 0.047 | R -0.134 ± 0.035 | E 0.091 ± 0.043 | Y -0.086 ± 0.055 | N -0.004 ± 0.14 | I -0.083 ± 0.055
A14: Y -0.339 ± 0.12 | T -0.206 ± 0.051 | E 0.039 ± 0.039
R32: C 0.007 ± 0.068 | K 0.238 ± 0.1 | M -0.107 ± 0.05 | H 0.045 ± 0.078 | G -0.185 ± 0.032
D18: C -0.187 ± 0.23 | F -0.564 ± 0.37 | L -0.617 ± 0.057 | N -0.21 ± 0.059 | S -0.169 ± 0.055
M8: V -0.508 ± 0.036 | Q -0.541 ± 0.066 | H -0.244 ± 0.084 | A -0.525 ± 0.051 | T -0.447 ± 0.067 | P -0.717 ± 0.067 | G -0.583 ± 0.038 | W -0.208 ± 0.056 | C -0.778 ± 0.37 | K -0.485 ± 0.056
P6: F -0.115 ± 0.07 | R 0.039 ± 0.032 | L -0.13 ± 0.035 | A 0.037 ± 0.035 | K 0.101 ± 0.042 | S -0.052 ± 0.05
E3: T -0.126 ± 0.054 | Q -0.138 ± 0.048 | D -0.099 ± 0.069 | H -0.148 ± 0.071 | F -0.18 ± 0.095 | I -0.529 ± 0.065 | N -0.119 ± 0.14
V22: R -0.623 ± 0.051 | L -0.538 ± 0.052 | C 0.11 ± 0.073 | G -0.008 ± 0.033 | Y -0.824 ± 0.14 | H -0.618 ± 0.12 | N -0.448 ± 0.092 | W -0.796 ± 0.065 | T -0.262 ± 0.048
A36: W -0.825 ± 0.06 | S -0.073 ± 0.05 | L -0.388 ± 0.034 | Y -0.632 ± 0.092
M21: K -0.059 ± 0.062 | H -0.294 ± 0.12 | Y -0.33 ± 0.072 | A -0.019 ± 0.045 | E 0.043 ± 0.044 | S -0.038 ± 0.038 | R -0.268 ± 0.039 | Q 0.077 ± 0.053
M44: Q 0.055 ± 0.075
A15: N -0.309 ± 0.073 | R 0.022 ± 0.04 | G -0.492 ± 0.033 | P -0.954 ± 0.1 | H -0.36 ± 0.11 | L -0.003 ± 0.038 | E -0.308 ± 0.073 | C -0.287 ± 0.06 | S -0.309 ± 0.041
E35: M -0.307 ± 0.24 | C -0.485 ± 0.066 | V -0.468 ± 0.04 | W -0.473 ± 0.049 | R -0.263 ± 0.035
I23: V 0.039 ± 0.037 | Y -0.211 ± 0.064 | R 0.024 ± 0.034 | T -0.041 ± 0.045 | K 0.041 ± 0.049 | F -0.261 ± 0.16 | Q -0.158 ± 0.049 | D -0.283 ± 0.081 | A -0.115 ± 0.043
Q27: K 0.068 ± 0.044 | H -0.269 ± 0.092 | G -0.292 ± 0.031 | D -0.151 ± 0.065 | S -0.071 ± 0.036
I38: K 0.055 ± 0.048 | C -0.119 ± 0.043 | P -0.147 ± 0.056 | A -0.048 ± 0.037 | L -0.078 ± 0.037 | V -0.024 ± 0.038 | G -0.169 ± 0.035 | E -0.007 ± 0.048
V4: P -0.057 ± 0.054 | D -0.344 ± 0.049 | W -0.561 ± 0.067 | F -0.357 ± 0.066 | N -0.204 ± 0.067 | L -0.367 ± 0.038
F17: R -0.648 ± 0.046 | G -0.465 ± 0.036 | C -0.488 ± 0.07 | T -0.609 ± 0.052 | Q -0.366 ± 0.049 | S -0.495 ± 0.038 | M -0.336 ± 0.061
S33: R -0.907 ± 0.058 | G -0.136 ± 0.035 | K -0.528 ± 0.097 | V -1.29 ± 0.13 | F -0.628 ± 0.16 | C -0.467 ± 0.09 | Y -0.735 ± 0.14
S2: W -0.174 ± 0.044 | D -0.082 ± 0.058 | M -0.143 ± 0.043 | N -0.057 ± 0.052 | T 0.075 ± 0.046 | K 0.021 ± 0.059 | L -0.219 ± 0.035
L26: N -0.377 ± 0.06 | M -0.559 ± 0.072 | Q -0.412 ± 0.05 | V -0.571 ± 0.044 | K -0.424 ± 0.069 | D -0.354 ± 0.059 | F -0.54 ± 0.096
Q7: L -0.296 ± 0.04 | S -0.149 ± 0.042 | C -0.354 ± 0.073
A37: T -0.391 ± 0.08 | C -0.376 ± 0.058 | V -0.453 ± 0.037 | W -1.17 ± 0.09
D20: A -0.047 ± 0.044 | H -0.234 ± 0.082 | V -0.261 ± 0.043 | G -0.081 ± 0.031 | N -0.06 ± 0.087 | K 0 ± 0.088 | Q -0.07 ± 0.075
N31: M -0.484 ± 0.063 | G -0.155 ± 0.03 | K -0.699 ± 0.12 | A -0.416 ± 0.035 | R -0.845 ± 0.046 | S 0.049 ± 0.038 | C -0.139 ± 0.041 | Q -0.63 ± 0.089 | I -0.577 ± 0.21
E39: Q -0.166 ± 0.042 | F -0.884 ± 0.13 | G -0.217 ± 0.03 | C -0.361 ± 0.075 | A -0.103 ± 0.035 | D -0.113 ± 0.089 | T -0.237 ± 0.047
K28: D -0.257 ± 0.063 | L -0.366 ± 0.038 | R -0.048 ± 0.035 | I -0.445 ± 0.13
A25: T -0.741 ± 0.058 | Q -0.697 ± 0.088 | P -0.415 ± 0.056 | E -0.668 ± 0.06 | W -0.728 ± 0.042 | Y -0.554 ± 0.067 | G -0.443 ± 0.033 | H -0.937 ± 0.21
E19: V -0.17 ± 0.033 | P -0.104 ± 0.043 | S -0.035 ± 0.045 | D -0.154 ± 0.041
S42: W -0.14 ± 0.04 | T 0.103 ± 0.056 | C -0.258 ± 0.11 | Q 0.127 ± 0.052 | F -0.229 ± 0.11 | D 0.033 ± 0.05 | L -0.248 ± 0.045
N30: G 0.045 ± 0.032 | V -1.1 ± 0.069 | R -0.103 ± 0.033 | M -0.553 ± 0.065 | Q -0.055 ± 0.047
G16: A -0.725 ± 0.062 | S -0.88 ± 0.059 | K -1.03 ± 0.2 | R -1.1 ± 0.072 | M -0.962 ± 0.099
I34: S -0.189 ± 0.044 | H -0.077 ± 0.06 | E -0.068 ± 0.045 | T 0.046 ± 0.044 | G -0.266 ± 0.033
F40: Q -0.068 ± 0.046 | K -0.177 ± 0.048 | A -0.018 ± 0.035 | R -0.248 ± 0.033
K43: A 0.034 ± 0.036 | L -0.117 ± 0.041 | D -0.03 ± 0.05 | T -0.004 ± 0.045 | M -0.071 ± 0.088
I41: G -0.282 ± 0.032 | N -0.429 ± 0.23 | Q -0.286 ± 0.049 | D -0.11 ± 0.045 | S -0.217 ± 0.043 | P -0.232 ± 0.06 | W -0.648 ± 0.057
Q10: H 0.019 ± 0.14 | C -0.225 ± 0.053 | K 0.013 ± 0.046 | E -0.077 ± 0.039 | G -0.231 ± 0.033 | W -0.295 ± 0.042 | N -0.105 ± 0.24 | T -0.195 ± 0.04
T29: N -0.414 ± 0.1 | W -1.09 ± 0.083 | K -0.806 ± 0.1 | D -0.902 ± 0.29 | R -0.715 ± 0.041 | A -0.646 ± 0.047 | G -0.527 ± 0.033
L12: T -0.636 ± 0.052 | Y -1.06 ± 0.32 | K -0.658 ± 0.058 | E -0.477 ± 0.046
Q13: R 0.059 ± 0.033 | K 0.084 ± 0.052 | S -0.127 ± 0.035 | W -0.851 ± 0.072 | I 0.071 ± 0.064 | F -0.536 ± 0.064 | H -0.42 ± 0.073 | L 0.104 ± 0.038 | T -0.002 ± 0.061
